Measured values reported in US20230277625A1 (SIMCHA IL 18, published 2023).
Residue numbers refer to the chain shown, from its start. Names may count otherwise.

B1: Human IL-18BP (amino acids 31-194), biotinylated (receptor)
chain: TPVSQTTTAATASVRSTKDPCPSQPPVFPAAKQCPALEVTWPEVEVPLNGTLSLSCVACSRFPNFSILYWLGNGSFIEHLPGRLWEGSTSRERGSTGTQLCKALVLEQLTPALHSTNFSCVLVDPEQVVQRHVVLAQLWAGLRATLPPTQEALPSSHSSPQQQGGLNDIFEAQKIEWHEHHHHHH
modifications: biotin on the AviTag (BirA ligase) where used biotinylated
notes: Soluble decoy receptor; also called hIL-18BP; recombinant IL-18BP
B2: SEQ ID NO: 19 (stabilized human DR-IL-18; SEQ ID NO: 89 plus C38S/C68D) (ligand)
chain: YFGKLESKLSVIRNLNDQVLFIDQGNRPLFEDMTDSDSRDNAPRTIFIISKYSDSLARGLAVTISVKDEKISTLSCENKIISFKEMNPPDNIKDTKSDIIFFQRDVPGHSRKMQFESSSYEGYFLACEKERDLFKLILKKEDELGDRSIMFTVQNED
B3: SEQ ID NO: 39 (human DR-IL-18 variant hA8) (ligand)
chain: YFGKLESRLSVIRNLNDQVLFIDQGNRPLFEDMTDSDCRDNAPRTIFIISKYKDKQPRAQAVTISVKCEKISTLSCENKIISFKEMNPPDNIKDTKSDIIFFQRDVPGHKHKMQFESSSYEGYFLACEKERDLFKLILKKEDELGDRSIMFTIQNED
notes: Engineered variant
B4: SEQ ID NO: 36 (human DR-IL-18 variant hCS3) (ligand)
chain: B3 chain with Y1R, R8K, K51T, K55S, A59G, Q60K, I153V
notes: Engineered variant

Legend:
[1] = biological target: T1, Human Interleukin-18 (mature form), wild type (human, UniProt Q14116 37-193); test: competition on yeast (flow cytometry): hIL-18BP titrated against a fixed 100 nM biotinylated hIL-18Rα on yeast-displayed IL-18
T1 construct: also called hIL-18 WT; WT hIL-18
T1 sequence: B3 chain with R8K, K51M, K55S, A59G, Q60M, D105S, K110D, H111N, I153V
Description: By contrast, IL-18BP effectively neutralizes the IL-18 E42A, K89A and E42A/K89A previously described (Kim et al., 2001, Proc. Natl. Acad. Sci., 98(6):3304-3309) (shown in chart on right) [E42 and K89 of Kim et al. are E6 and K53 of SEQ ID NO: 30, respectively]. Biotinylated IL-18Rα was kept at a fixed concentration of 100 nM for all samples.
(§1) Individual colonies of IL-18 yeast were grown overnight at 30° C. in SDCAA liquid media and induced in SGCAA liquid media for 1 day at 20° C. IL-18 display levels on yeast were verified by flow cytometry using an anti-cMyc tag antibody (anti-myc-PE; Cell Signaling Technologies). Receptor staining with biotinylated IL-18Rα (with or without IL-18R β) or biotinylated IL-18BP was performed in PBS supplemented with 0.5% BSA and 2 mM EDTA (PBE) on ice. All analysis was performed on a Sony SA3800 flow cytometer.

[2] = biological target: T1, Human Interleukin-18 (mature form), …; test: cell-based or functional assay
[3] = biological target: T2, Human IL-18Rα ectodomain (amino acids 19-329), biotinylated (human, UniProt Q13478 19-329, biotin on the AviTag (BirA ligase)); test: SPR single-cycle kinetics, biotinylated hIL-18Rα on a streptavidin capture chip, IL-18 variant as analyte
T2 construct: range 19-329; Secreted from insect cells (gp67 signal peptide removed); also called hIL-18Rα; hIL18Rα
T2 sequence: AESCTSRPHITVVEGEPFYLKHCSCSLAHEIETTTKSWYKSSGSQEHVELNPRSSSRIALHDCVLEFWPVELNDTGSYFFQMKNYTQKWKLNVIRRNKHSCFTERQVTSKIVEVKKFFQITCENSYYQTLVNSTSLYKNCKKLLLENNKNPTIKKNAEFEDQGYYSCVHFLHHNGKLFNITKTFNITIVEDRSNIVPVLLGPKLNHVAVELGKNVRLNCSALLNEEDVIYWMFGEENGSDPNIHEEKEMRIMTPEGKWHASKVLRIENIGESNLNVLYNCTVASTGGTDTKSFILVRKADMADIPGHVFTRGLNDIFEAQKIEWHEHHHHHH
Description: (§2) IL-18 receptor affinity. The affinities of human IL-18 and SEQ ID NO: 19 were determined for both human and cynomolgus monkey IL-18Rα and IL-18BP using surface plasmon resonance. Biotinylated receptor proteins were immobilized on a streptavidin capture chip and IL-18 or SEQ ID NO: 19 were applied as the free analyte. […] were used to determine binding. WT hIL-18 and SEQ ID NO: 19 had similar binding affinity for IL-18Rα in this assay (FIG. 37A).

[4] = biological target: T3, Cynomolgus monkey IL-18Rα, biotinylated (cynomolgus monkey, UniProt A0A2K5V3J9 19-328, biotinylated); test: SPR single-cycle kinetics, biotinylated cynomolgus IL-18Rα on a streptavidin capture chip, IL-18 variant as analyte
T3 sequence: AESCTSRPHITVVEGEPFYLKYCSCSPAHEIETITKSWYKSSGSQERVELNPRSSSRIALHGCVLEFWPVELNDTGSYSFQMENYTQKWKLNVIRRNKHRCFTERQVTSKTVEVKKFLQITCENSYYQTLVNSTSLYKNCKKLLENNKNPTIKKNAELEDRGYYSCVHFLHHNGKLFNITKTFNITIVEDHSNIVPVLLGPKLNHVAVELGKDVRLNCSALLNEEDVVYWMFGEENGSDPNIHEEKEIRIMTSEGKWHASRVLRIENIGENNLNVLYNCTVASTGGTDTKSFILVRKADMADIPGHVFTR
Description: as §2

[5] = biological target: T4, IL-18 receptor (IL-18Rα / IL-18Rβ heterodimer) on HEK-Blue IL-18 reporter cells (UniProt Q13478 19-541; O95256 20-599, limits assumed); test: cell-based or functional assay
T4 sequence (looked up) 1: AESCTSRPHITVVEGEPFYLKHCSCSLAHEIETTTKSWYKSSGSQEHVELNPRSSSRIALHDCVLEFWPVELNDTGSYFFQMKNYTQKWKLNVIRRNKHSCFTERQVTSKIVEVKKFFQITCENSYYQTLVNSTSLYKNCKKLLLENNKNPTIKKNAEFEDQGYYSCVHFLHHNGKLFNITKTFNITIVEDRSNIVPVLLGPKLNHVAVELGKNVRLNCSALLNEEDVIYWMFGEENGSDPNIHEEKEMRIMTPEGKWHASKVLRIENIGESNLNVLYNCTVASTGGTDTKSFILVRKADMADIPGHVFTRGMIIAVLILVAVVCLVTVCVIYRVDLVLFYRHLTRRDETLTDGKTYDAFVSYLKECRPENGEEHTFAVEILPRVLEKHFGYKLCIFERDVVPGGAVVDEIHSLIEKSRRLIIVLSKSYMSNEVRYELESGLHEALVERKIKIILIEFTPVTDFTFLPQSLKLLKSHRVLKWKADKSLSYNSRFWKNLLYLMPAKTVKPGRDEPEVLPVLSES
T4 sequence (looked up) 2: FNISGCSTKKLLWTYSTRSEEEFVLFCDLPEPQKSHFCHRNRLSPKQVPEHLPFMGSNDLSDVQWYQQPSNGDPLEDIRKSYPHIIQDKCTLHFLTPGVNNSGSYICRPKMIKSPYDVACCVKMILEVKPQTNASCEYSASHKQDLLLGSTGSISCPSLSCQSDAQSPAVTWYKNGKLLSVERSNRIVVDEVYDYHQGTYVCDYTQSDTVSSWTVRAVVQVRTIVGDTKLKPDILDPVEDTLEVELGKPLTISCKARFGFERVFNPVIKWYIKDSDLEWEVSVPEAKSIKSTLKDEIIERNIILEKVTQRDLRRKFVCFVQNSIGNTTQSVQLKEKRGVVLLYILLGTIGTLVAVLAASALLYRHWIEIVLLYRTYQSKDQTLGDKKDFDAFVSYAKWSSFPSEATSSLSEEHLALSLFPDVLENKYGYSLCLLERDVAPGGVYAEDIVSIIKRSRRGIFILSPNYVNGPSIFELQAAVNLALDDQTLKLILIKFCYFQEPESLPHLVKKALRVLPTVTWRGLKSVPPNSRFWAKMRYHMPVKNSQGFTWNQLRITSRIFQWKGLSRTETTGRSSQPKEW

[6] = biological target: B1; test: on-yeast binding isotherms; 20 µM used for NBD; yeast-displayed variant; ratio computed with 20 µM put in for NBD
[7] = biological target: B1; test: on-yeast binding isotherms; KD ratio relative to WT IL-18; yeast-displayed variant; ratio normalized to WT, from the 20 µM placeholder
[8] = biological target: B1; test: on-yeast binding isotherm (flow cytometry); members per FIG. 5A legend
Description: as §1
(§3) To additionally characterize the receptor binding activities of the DR-IL-18 variants, the cytokines were expressed recombinantly and surface plasmon resonance for IL-18Rα and IL-18BP was performed (see FIG. 5B for representative traces).

[9] = biological target: T2, Human IL-18Rα ectodomain (amino acids …); test: SPR (Biacore T100), receptor captured via biotin, IL-18 as analyte
Description: (§4) Experiments were conducted using a Biacore T100 and carried out at 25° C. Biotinylated IL-18Rα or IL-18BP were immobilized onto a Biacore biotin capture chip (Series S CAP sensor chip, GE Healthcare) to yield an Rmax of ˜50 RU (IL-18Rα) or ˜10 RU (IL-18BP). Measurements were made with serial dilutions of the IL-18 variants in HEPES buffered Saline-P+buffer (10 mM HEPES pH 7.4, 150 mM NaCl, 0.005% surfactant P20). The surface was regenerated by three 60-sec injections of regeneration buffer (3/4 (v/v) 8M guanidine hydrochloride with 1/4 (v/v) 1M sodium hydroxide). Experiments were performed in multiple channels simultaneously for increased observations. All data were analyzed with the Biacore T100 evaluation software version 2.0 with a 1:1 Langmuir binding model.
as §3

[10] = biological target: B1; test: SPR; KD for IL-18BP over KD for IL-18Rα
Description: as §4, §3

[11] = biological target: B1; test: on-yeast binding isotherm (flow cytometry)
[12] = biological target: B1; test: SPR; KD(IL-18BP)/KD(IL-18Rα) normalized to WT IL-18
[13] = biological target: B1; test: on-yeast binding isotherms; KD ratio relative to WT IL-18
[14] = biological target: B1; test: SPR (Biacore T100), IL-18BP captured via biotin, IL-18 as analyte
Description: as §4, §3

[15] = biological target: B1; test: SPR; KD ratio relative to WT IL-18
Description: as §4, §3

[16] = biological target: B1; test: on-yeast binding isotherms; KD for IL-18BP over KD for IL-18Rα
[17] = biological target: B1; test: SPR; average of 2 studies
[18] = biological target: T2, Human IL-18Rα ectodomain (amino acids …); test: SPR; average of 2 studies

Binder: B1
- IC50 (read off the curve) [1]: ~20 nM
- IC50 of recombinant IL-18BP in the HEK Blue IL-18 signaling assay (hIL-18 fixed at 5 nM) [2]: 3 nM

Binder: B2
- Kd [3]: 18.8 nM
- Kd [4]: 10.9 nM
- EC50-#1 (M), HEK-Blue reporter [5]: 1.24e-10 M
- EC50-#2 (M), HEK-Blue reporter [5]: 7.9e-11 M

Binder: B3
- KD ratio IL-18BP/IL-18Rα [6]: > 347
- Dissociation Constant Ratio normalized to WT IL-18 [7]: > 1170

Binder: B4
- EC50 [8]: > 1000 nM
- Kd [9]: 8.18 nM
- KD ratio IL-18BP/IL-18Rα [10]: 2.27
- Kd [11]: 11600 nM
- IL-18 BP:Rα Dissociation Constant Ratio [12]: 4350
- Dissociation Constant Ratio normalized to WT IL-18 [13]: 348
- Kd [14]: 18.6 nM
- Dissociation Constant Ratio normalized to WT IL-18 [15]: 3500
- KD ratio IL-18BP/IL-18Rα [16]: 103
- Kd [17]: 19.3 nM
- Kd [18]: 9.1 nM
